# Test results taken from publication PMC5504291, “Bacterial lipid droplets bind to DNA via an intermediary protein that enhances survival under stress”.
# T1: MLDSR (GST-MLDSR) (Rhodococcus jostii RHA1, UniProt A0A1H4Y2R3 2-168)
# T1 sequence: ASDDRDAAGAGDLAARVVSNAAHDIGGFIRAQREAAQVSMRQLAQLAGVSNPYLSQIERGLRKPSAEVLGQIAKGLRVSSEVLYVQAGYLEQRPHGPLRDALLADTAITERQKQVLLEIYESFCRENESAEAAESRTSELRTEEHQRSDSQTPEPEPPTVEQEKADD
# How the values were obtained:
# MLDSR (GST-MLDSR) [1] = molecular target: T1, MLDSR (GST-MLDSR); experiment: SPR; EMSA: 20 mM Tris-HCl pH 7.5, 150 mM NaCl, 5 mM MgCl2, 1 mM EDTA, 1 mM DTT, 4% glycerol, 24 C or room temperature, 30-40 min; SPR: 20 mM Tris-HCl pH 7.5, 150 mM; details: protein: recombinant; tags: N-terminal GST; label: 5'-biotin on strand 1; blunt
# MLDSR (GST-MLDSR) [2] = molecular target: T1, MLDSR (GST-MLDSR); experiment: EMSA; EMSA: 20 mM Tris-HCl pH 7.5, 150 mM NaCl, 5 mM MgCl2, 1 mM EDTA, 1 mM DTT, 4% glycerol, 24 C or room temperature, 30-40 min; SPR: 20 mM Tris-HCl pH 7.5, 150 mM; details: protein: recombinant; tags: N-terminal GST; blunt
# MLDSR (GST-MLDSR) [3] = molecular target: T1, MLDSR (GST-MLDSR); experiment: SPR; 1:1 model though DNA holds two sites; EMSA: 20 mM Tris-HCl pH 7.5, 150 mM NaCl, 5 mM MgCl2, 1 mM EDTA, 1 mM DTT, 4% glycerol, 24 C or room temperature, 30-40 min; SPR: 20 mM Tris-HCl pH 7.5, 150 mM; details: protein: recombinant; tags: N-terminal GST; label: 5'-biotin on strand 1; blunt
# MLDSR (GST-MLDSR) [4] = molecular target: T1, MLDSR (GST-MLDSR); experiment: EMSA; rough estimate by authors from Fig. 5b; EMSA: 20 mM Tris-HCl pH 7.5, 150 mM NaCl, 5 mM MgCl2, 1 mM EDTA, 1 mM DTT, 4% glycerol, 24 C or room temperature, 30-40 min; SPR: 20 mM Tris-HCl pH 7.5, 150 mM; details: protein: recombinant; tags: N-terminal GST; blunt
binder,measurement,setting,value
biotin-motif 1 (20 bp) (dsDNA) DNA 1: GTGCTTGCAATTGCTAGCAC DNA 2: GTGCTAGCAATTGCAAGCAC,Kd,MLDSR (GST-MLDSR) [1],175 nM
103 bp (dsDNA) DNA 1: CAATCGCCTCGACGGAGGGTCCGCTAGCTGGGTGCTAACAGAGTGCTTGCAATTGCTAGCACCCTGCTTTAGCCTTGGTTCTGCCCAGCAACACGGAGGACTG DNA 2: CAGTCCTCCGTGTTGCTGGGCAGAACCAAGGCTAAAGCAGGGTGCTAGCAATTGCAAGCACTCTGTTAGCACCCAGCTAGCGGACCCTCCGTCGAGGCGATTG,binding result,MLDSR (GST-MLDSR) [2],binds
biotin-motif 2 (23 bp) (dsDNA) DNA 1: TCCGCTAGCTGGGTGCTAACAGA DNA 2: TCTGTTAGCACCCAGCTAGCGGA,Kd,MLDSR (GST-MLDSR) [1],5140 nM
biotin-43 bp (motif 1+2) (dsDNA) DNA 1: TCCGCTAGCTGGGTGCTAACAGAGTGCTTGCAATTGCTAGCAC DNA 2: GTGCTAGCAATTGCAAGCACTCTGTTAGCACCCAGCTAGCGGA,Kd,MLDSR (GST-MLDSR) [3],62 nM
43 bp (motif 1+2) (dsDNA) DNA 1: TCCGCTAGCTGGGTGCTAACAGAGTGCTTGCAATTGCTAGCAC DNA 2: GTGCTAGCAATTGCAAGCACTCTGTTAGCACCCAGCTAGCGGA,Kd,MLDSR (GST-MLDSR) [4],~442 nM
